Biological target: Human factor D (human, UniProt P00746 26-253)
Assay: cell-based or functional assay

Chain of Human factor D (P00746 26-253 limits assumed): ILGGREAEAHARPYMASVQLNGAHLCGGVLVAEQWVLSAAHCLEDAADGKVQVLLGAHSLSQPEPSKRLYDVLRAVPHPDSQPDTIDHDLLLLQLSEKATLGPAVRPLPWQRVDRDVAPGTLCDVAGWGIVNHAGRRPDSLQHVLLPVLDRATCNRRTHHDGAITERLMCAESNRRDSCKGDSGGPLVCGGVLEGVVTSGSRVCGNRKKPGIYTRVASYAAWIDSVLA

B1: Recombinant polypeptide from Example 6 (Placobdella papillifera alternative complement pathway inhibitor, mature polypeptide of SEQ ID NO: 16) (other)
chain: VEFQDCKKSSDCETLELRCNKNTSKCECRNQVCPRACPDGKYKLDEYGCKRCLCQGCNEAQCRKLCWYGFTTDENGCESYCKCNTKETACKNVLCSDSYQCDPESGNCVAVIPGKEHDYYSYNDDDDEDK
modifications: No modification is reported for the recombinant product. paragraph 50 mentions only in general a possible N-glycosylation at Asn22 and sulphation or phosphation of Tyr119, Tyr120 and Tyr122. Disulphide bonds between cysteines are likely but not mapped.
IC50 of inhibition of CVF-induced C3a generation in human serum (C3a ELISA): 0.138 µg/mL

Source: patent publication US20040038869A1 (published 2004)
